From publication PMC6599478

How the values were obtained:
[1] = target: HIV-1 clade B Tier 1A chronic virus MN.3 gp120 Env (HIV-1 (clade B, MN.3)) (UniProt P05877)
[2] = target: HIV-1 MN.3 Env with the glycan mutation N332A, on pseudovirus (HIV-1 (clade B, MN.3)) (UniProt P05877)

Substance | IC50 of neutralisation of wild type HIV-1 MN.3 virus, TZM-bl reporter cells [1] | IC50 of neutralisation of HIV-1 MN.3 N332A pseudovirus, TZM-bl reporter cells [2]
recombinant full length Tenascin-C, large isoform (TNC-L) (from UniProt P24821 23-2201) (natural protein) | 31 µg/mL | –
recombinant full length Tenascin-C, large isoform (TNC-L), P24821 23-2201 | – | 113 µg/mL
